In patent US20180141972:

How the values were obtained:
[1] = test system: Spycatcher-WELQ-LSSmOrange fusion protein
[2] = molecular target: Spycatcher-WELQ-Tem1 fusion protein (Spycatcher followed by a SplB protease site with a P1' methionine and the lactamase Tem1) (UniProt P62593)

Question: With SplB protease fused to Spytag as the substance, how does the “cleavage of the fusion protein to native LSSmOrange (gel, FIG. 4)” value [1] read?
Answer: A similar experiment with LSSmOrange replacing Tem1 yielded the same result

Question: And the “cleavage of the fusion protein to native Tem1 (gel, FIG. 3)” value [2]?
Answer: this led to the cleavage of Tem1 at the first methionine
